# Laboratory results: PMC9957003, “Functional Analyses of Rare Germline Missense BRCA1 Variants Located within and outside Protein Domains with Known Functions” (Genes, 2023)
# T1: BARD1-V5 WT (BRCA1-Associated RING Domain protein 1) (UniProt Q99728 1-777)
# T1 construct: BARD1 (BRCA1-Associated RING Domain protein 1), wild type; also called pcDNA6.2-BARD1-V5; source: HEK293FT, transiently co-transfected, in lysate
# T1 sequence (looked up): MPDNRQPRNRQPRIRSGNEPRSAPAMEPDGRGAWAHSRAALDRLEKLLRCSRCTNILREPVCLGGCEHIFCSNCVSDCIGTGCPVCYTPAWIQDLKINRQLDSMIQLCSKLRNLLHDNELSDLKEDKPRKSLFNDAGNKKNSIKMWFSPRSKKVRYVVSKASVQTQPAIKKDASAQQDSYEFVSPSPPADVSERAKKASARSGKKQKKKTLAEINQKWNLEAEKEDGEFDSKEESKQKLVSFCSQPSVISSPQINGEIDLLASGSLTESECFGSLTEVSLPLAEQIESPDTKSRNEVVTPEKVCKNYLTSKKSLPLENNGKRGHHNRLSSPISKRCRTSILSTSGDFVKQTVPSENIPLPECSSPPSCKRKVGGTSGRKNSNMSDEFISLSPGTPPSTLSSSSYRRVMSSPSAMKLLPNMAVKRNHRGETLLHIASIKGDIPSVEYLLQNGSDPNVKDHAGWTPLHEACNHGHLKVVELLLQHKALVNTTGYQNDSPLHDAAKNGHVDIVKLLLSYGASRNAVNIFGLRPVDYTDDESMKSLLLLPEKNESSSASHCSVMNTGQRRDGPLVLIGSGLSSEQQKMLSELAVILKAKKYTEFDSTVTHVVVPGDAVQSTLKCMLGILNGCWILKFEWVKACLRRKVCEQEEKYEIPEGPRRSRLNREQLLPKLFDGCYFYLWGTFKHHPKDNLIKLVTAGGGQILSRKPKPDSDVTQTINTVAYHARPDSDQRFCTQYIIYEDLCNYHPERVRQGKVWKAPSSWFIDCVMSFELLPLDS
# Molecular target: T1, BARD1-V5 WT (BRCA1-Associated RING …)
# Assay: co-IP; HEK293FT co-transfected with BRCA1 WT or variant and BARD1-V5; 2 mg lysate protein incubated 90 min at 4 °C with V5 antibody coupled to Dynabeads Protein G; non-denaturing elution; BRCA1 in the IP detected by anti-BRCA1 blot, normalised to the anti-V5 signal, % of WT
# Conditions: partners not purified
row,Binder,Co-IP BARD1 (% of WT)
1,"mCherry-tagged wild type (WT) full-length human BRCA1 protein (natural protein, UniProt P38398 1-1863, looked up, BRCA1, human, full-length, wild type; also called BRCA1 WT; mCherry-BRCA1; source: HEK293FT, transiently co-transfected, in lysate) MDLSALRVEEVQNVINAMQKILECPICLELIKEPVSTKCDHIFCKFCMLKLLNQKKGPSQCPLCKNDITKRSLQESTRFSQLVEELLKIICAFQLDTGLEYANSYNFAKKENNSPEHLKDEVSIIQSMGYRNRAKRLLQSEPENPSLQETSLSVQLSNLGTVRTLRTKQRIQPQKTSVYIELGSDSSEDTVNKATYCSVGDQELLQITPQGTRDEISLDSAKKAACEFSETDVTNTEHHQPSNNDLNTTEKRAAERHPEKYQGSSVSNLHVEPCGTNTHASSLQHENSSLLLTKDRMNVEKAEFCNKSKQPGLARSQHNRWAGSKETCNDRRTPSTEKKVDLNADPLCERKEWNKQKLPCSENPRDTEDVPWITLNSSIQKVNEWFSRSDELLGSDDSHDGESESNAKVADVLDVLNEVDEYSGSSEKIDLLASDPHEALICKSERVHSKSVESNIEDKIFGKTYRKKASLPNLSHVTENLIIGAFVTEPQIIQERPLTNKLKRKRRPTSGLHPEDFIKKADLAVQKTPEMINQGTNQTEQNGQVMNITNSGHENKTKGDSIQNEKNPNPIESLEKESAFKTKAEPISSSISNMELELNIHNSKAPKKNRLRRKSSTRHIHALELVVSRNLSPPNCTELQIDSCSSSEEIKKKKYNQMPVRHSRNLQLMEGKEPATGAKKSNKPNEQTSKRHDSDTFPELKLTNAPGSFTKCSNTSELKEFVNPSLPREEKEEKLETVKVSNNAEDPKDLMLSGERVLQTERSVESSSISLVPGTDYGTQESISLLEVSTLGKAKTEPNKCVSQCAAFENPKGLIHGCSKDNRNDTEGFKYPLGHEVNHSRETSIEMEESELDAQYLQNTFKVSKRQSFAPFSNPGNAEEECATFSAHSGSLKKQSPKVTFECEQKEENQGKNESNIKPVQTVNITAGFPVVGQKDKPVDNAKCSIKGGSRFCLSSQFRGNETGLITPNKHGLLQNPYRIPPLFPIKSFVKTKCKKNLLEENFEEHSMSPEREMGNENIPSTVSTISRNNIRENVFKEASSSNINEVGSSTNEVGSSINEIGSSDENIQAELGRNRGPKLNAMLRLGVLQPEVYKQSLPGSNCKHPEIKKQEYEEVVQTVNTDFSPYLISDNLEQPMGSSHASQVCSETPDDLLDDGEIKEDTSFAENDIKESSAVFSKSVQKGELSRSPSPFTHTHLAQGYRRGAKKLESSEENLSSEDEELPCFQHLLFGKVNNIPSQSTRHSTVATECLSKNTEENLLSLKNSLNDCSNQVILAKASQEHHLSEETKCSASLFSSQCSELEDLTANTNTQDPFLIGSSKQMRHQSESQGVGLSDKELVSDDEERGTGLEENNQEEQSMDSNLGEAASGCESETSVSEDCSGLSSQSDILTTQQRDTMQHNLIKLQQEMAELEAVLEQHGSQPSNSYPSIISDSSALEDLRNPEQSTSEKAVLTSQKSSEYPISQNPEGLSADKFEVSADSSTSKNKEPGVERSSPSKCPSLDDRWYMHSCSGSLQNRNYPSQEELIKVVDVEEQQLEESGPHDLTETSYLPRQDLEGTPYLESGISLFSDDPESDPSEDRAPESARVGNIPSSTSALKVPQLKVAESAQSPAAAHTTDTAGYNAMEESVSREKPELTASTERVNKRMSMVVSGLTPEEFMLVYKFARKHHITLTNLITEETTHVVMKTDAEFVCERTLKYFLGIAGGKWVVSYFWVTQSIKERKMLNEHDFEVRGDVVNGRNHQGPKRARESQDRKIFRGLEICCYGPFTNMPTDQLEWMVQLCGASVVKELSSFTLGTGVHPIVVVQPDAWTEDNGFHAIGQMCEAPVVTREWVLDSVALYQCQELDTYLIPQIPHSHY",100 % of WT
2,"BRCA1 p.Cys39Tyr (full-length, mCherry-tagged; pathogenic control variant, RING domain) (natural protein, human, UniProt P38398 1-1863, looked up, BRCA1, human, full-length, pathogenic control missense variant in the RING domain, introduced in the WT plasmid; Made by site-directed mutagenesis of the plasmid of m1; all other places and c.116G > A say p.Cys39Tyr; also called c.116G > A; source: HEK293FT, transiently co-transfected, in lysate) MDLSALRVEEVQNVINAMQKILECPICLELIKEPVSTKYDHIFCKFCMLKLLNQKKGPSQCPLCKNDITKRSLQESTRFSQLVEELLKIICAFQLDTGLEYANSYNFAKKENNSPEHLKDEVSIIQSMGYRNRAKRLLQSEPENPSLQETSLSVQLSNLGTVRTLRTKQRIQPQKTSVYIELGSDSSEDTVNKATYCSVGDQELLQITPQGTRDEISLDSAKKAACEFSETDVTNTEHHQPSNNDLNTTEKRAAERHPEKYQGSSVSNLHVEPCGTNTHASSLQHENSSLLLTKDRMNVEKAEFCNKSKQPGLARSQHNRWAGSKETCNDRRTPSTEKKVDLNADPLCERKEWNKQKLPCSENPRDTEDVPWITLNSSIQKVNEWFSRSDELLGSDDSHDGESESNAKVADVLDVLNEVDEYSGSSEKIDLLASDPHEALICKSERVHSKSVESNIEDKIFGKTYRKKASLPNLSHVTENLIIGAFVTEPQIIQERPLTNKLKRKRRPTSGLHPEDFIKKADLAVQKTPEMINQGTNQTEQNGQVMNITNSGHENKTKGDSIQNEKNPNPIESLEKESAFKTKAEPISSSISNMELELNIHNSKAPKKNRLRRKSSTRHIHALELVVSRNLSPPNCTELQIDSCSSSEEIKKKKYNQMPVRHSRNLQLMEGKEPATGAKKSNKPNEQTSKRHDSDTFPELKLTNAPGSFTKCSNTSELKEFVNPSLPREEKEEKLETVKVSNNAEDPKDLMLSGERVLQTERSVESSSISLVPGTDYGTQESISLLEVSTLGKAKTEPNKCVSQCAAFENPKGLIHGCSKDNRNDTEGFKYPLGHEVNHSRETSIEMEESELDAQYLQNTFKVSKRQSFAPFSNPGNAEEECATFSAHSGSLKKQSPKVTFECEQKEENQGKNESNIKPVQTVNITAGFPVVGQKDKPVDNAKCSIKGGSRFCLSSQFRGNETGLITPNKHGLLQNPYRIPPLFPIKSFVKTKCKKNLLEENFEEHSMSPEREMGNENIPSTVSTISRNNIRENVFKEASSSNINEVGSSTNEVGSSINEIGSSDENIQAELGRNRGPKLNAMLRLGVLQPEVYKQSLPGSNCKHPEIKKQEYEEVVQTVNTDFSPYLISDNLEQPMGSSHASQVCSETPDDLLDDGEIKEDTSFAENDIKESSAVFSKSVQKGELSRSPSPFTHTHLAQGYRRGAKKLESSEENLSSEDEELPCFQHLLFGKVNNIPSQSTRHSTVATECLSKNTEENLLSLKNSLNDCSNQVILAKASQEHHLSEETKCSASLFSSQCSELEDLTANTNTQDPFLIGSSKQMRHQSESQGVGLSDKELVSDDEERGTGLEENNQEEQSMDSNLGEAASGCESETSVSEDCSGLSSQSDILTTQQRDTMQHNLIKLQQEMAELEAVLEQHGSQPSNSYPSIISDSSALEDLRNPEQSTSEKAVLTSQKSSEYPISQNPEGLSADKFEVSADSSTSKNKEPGVERSSPSKCPSLDDRWYMHSCSGSLQNRNYPSQEELIKVVDVEEQQLEESGPHDLTETSYLPRQDLEGTPYLESGISLFSDDPESDPSEDRAPESARVGNIPSSTSALKVPQLKVAESAQSPAAAHTTDTAGYNAMEESVSREKPELTASTERVNKRMSMVVSGLTPEEFMLVYKFARKHHITLTNLITEETTHVVMKTDAEFVCERTLKYFLGIAGGKWVVSYFWVTQSIKERKMLNEHDFEVRGDVVNGRNHQGPKRARESQDRKIFRGLEICCYGPFTNMPTDQLEWMVQLCGASVVKELSSFTLGTGVHPIVVVQPDAWTEDNGFHAIGQMCEAPVVTREWVLDSVALYQCQELDTYLIPQIPHSHY",8 % of WT
3,"BRCA1 p.Lys45Gln (full-length, mCherry-tagged; benign control variant, RING domain) (natural protein, human, UniProt P38398 1-1863, looked up, BRCA1, human, full-length, benign control missense variant in the RING domain, introduced in the WT plasmid; Made by site-directed mutagenesis of the plasmid of m1; also called c.133A > C; source: HEK293FT, transiently co-transfected, in lysate) MDLSALRVEEVQNVINAMQKILECPICLELIKEPVSTKCDHIFCQFCMLKLLNQKKGPSQCPLCKNDITKRSLQESTRFSQLVEELLKIICAFQLDTGLEYANSYNFAKKENNSPEHLKDEVSIIQSMGYRNRAKRLLQSEPENPSLQETSLSVQLSNLGTVRTLRTKQRIQPQKTSVYIELGSDSSEDTVNKATYCSVGDQELLQITPQGTRDEISLDSAKKAACEFSETDVTNTEHHQPSNNDLNTTEKRAAERHPEKYQGSSVSNLHVEPCGTNTHASSLQHENSSLLLTKDRMNVEKAEFCNKSKQPGLARSQHNRWAGSKETCNDRRTPSTEKKVDLNADPLCERKEWNKQKLPCSENPRDTEDVPWITLNSSIQKVNEWFSRSDELLGSDDSHDGESESNAKVADVLDVLNEVDEYSGSSEKIDLLASDPHEALICKSERVHSKSVESNIEDKIFGKTYRKKASLPNLSHVTENLIIGAFVTEPQIIQERPLTNKLKRKRRPTSGLHPEDFIKKADLAVQKTPEMINQGTNQTEQNGQVMNITNSGHENKTKGDSIQNEKNPNPIESLEKESAFKTKAEPISSSISNMELELNIHNSKAPKKNRLRRKSSTRHIHALELVVSRNLSPPNCTELQIDSCSSSEEIKKKKYNQMPVRHSRNLQLMEGKEPATGAKKSNKPNEQTSKRHDSDTFPELKLTNAPGSFTKCSNTSELKEFVNPSLPREEKEEKLETVKVSNNAEDPKDLMLSGERVLQTERSVESSSISLVPGTDYGTQESISLLEVSTLGKAKTEPNKCVSQCAAFENPKGLIHGCSKDNRNDTEGFKYPLGHEVNHSRETSIEMEESELDAQYLQNTFKVSKRQSFAPFSNPGNAEEECATFSAHSGSLKKQSPKVTFECEQKEENQGKNESNIKPVQTVNITAGFPVVGQKDKPVDNAKCSIKGGSRFCLSSQFRGNETGLITPNKHGLLQNPYRIPPLFPIKSFVKTKCKKNLLEENFEEHSMSPEREMGNENIPSTVSTISRNNIRENVFKEASSSNINEVGSSTNEVGSSINEIGSSDENIQAELGRNRGPKLNAMLRLGVLQPEVYKQSLPGSNCKHPEIKKQEYEEVVQTVNTDFSPYLISDNLEQPMGSSHASQVCSETPDDLLDDGEIKEDTSFAENDIKESSAVFSKSVQKGELSRSPSPFTHTHLAQGYRRGAKKLESSEENLSSEDEELPCFQHLLFGKVNNIPSQSTRHSTVATECLSKNTEENLLSLKNSLNDCSNQVILAKASQEHHLSEETKCSASLFSSQCSELEDLTANTNTQDPFLIGSSKQMRHQSESQGVGLSDKELVSDDEERGTGLEENNQEEQSMDSNLGEAASGCESETSVSEDCSGLSSQSDILTTQQRDTMQHNLIKLQQEMAELEAVLEQHGSQPSNSYPSIISDSSALEDLRNPEQSTSEKAVLTSQKSSEYPISQNPEGLSADKFEVSADSSTSKNKEPGVERSSPSKCPSLDDRWYMHSCSGSLQNRNYPSQEELIKVVDVEEQQLEESGPHDLTETSYLPRQDLEGTPYLESGISLFSDDPESDPSEDRAPESARVGNIPSSTSALKVPQLKVAESAQSPAAAHTTDTAGYNAMEESVSREKPELTASTERVNKRMSMVVSGLTPEEFMLVYKFARKHHITLTNLITEETTHVVMKTDAEFVCERTLKYFLGIAGGKWVVSYFWVTQSIKERKMLNEHDFEVRGDVVNGRNHQGPKRARESQDRKIFRGLEICCYGPFTNMPTDQLEWMVQLCGASVVKELSSFTLGTGVHPIVVVQPDAWTEDNGFHAIGQMCEAPVVTREWVLDSVALYQCQELDTYLIPQIPHSHY",76 % of WT
